B1: Azoarcus group I ribozyme (parent)
chain: GUGCCUUGCGCCGGGAAACCACGCAAGGGAUGGUGUCAAAUUCGGCGAAACCUAAGCGCCCGCCCGGGCGUAUGGCAACGCCGAGCCAAGCUUCGGCGCCUGCGCCGAUGAAGGUGUAGAGACUAGACGGCACCCACCUAAGGCAAACGCUAUGGUGAAGGCAUAGUCCAGGGAGUGGCGAAAGUCACACAAACCGG

Variants of: B1
Experiment: reverse-splicing fitness (ratio to wild type); higher = more active; in vitro selection; Mg2+ level not given
Procedure, shortened: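 An in vitro group I ribozyme library with randomized positions was T7-transcribed and gel-purified. In triplicate, 10 pmol RNA in EPPS pH 7.5 was reacted with 50 pmoles of a 30-nt RNA substrate for 1 h at 37 °C across several added MgCl2 levels (1–48 mM), then stopped with EDTA. Products were reverse transcribed from a substrate-complementary primer, PCR-amplified and sequenced (HiSeq 4000). Fitness is a variant's read proportion after selection over that before, normalised to wild type.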

Going from C82G A111C A120U A145U C150A C169G U176C to C82G A111C A120U C169U, the reverse-splicing fitness rises from 0.00248 to 0.00571.

First: C82G A111C A120U C169G
Second: C82G A111C A120U C169A
The reverse-splicing fitness of the first is higher: 0.00478 for the first, 0.00474 for the second.

Going from C82G A111C A120U A145G U176C to C82G A111C A120U A145G U176G, the reverse-splicing fitness falls from 0.0203 to 0.004.

Compared with C82G A111C A120U A145G U176A, C82G A111C A120U A145G C169G U176C is lower in reverse-splicing fitness: 0.0112 for the first, 0.00363 for the second.

Compared with C82G A111C A120U A145G C169G U176G, C82G A111C A120U A145G C169G U176A is higher in reverse-splicing fitness: 0.00194 for the first, 0.00387 for the second.

Compared with C82G A111C A120U A145U C169G U176C, C82G A111C A120U A145U C169G U176A is higher in reverse-splicing fitness: 0.00239 for the first, 0.00269 for the second.

Compared with C82G A111C A120U A145U C169G U176G, C82G A111C A120U A145G C150G is higher in reverse-splicing fitness: 0.00162 for the first, 0.0111 for the second.

Compared with C82G A111C A120U A145G C150A, C82G A111C A120U A145G C150U is higher in reverse-splicing fitness: 0.0106 for the first, 0.0408 for the second.

First: C82G A111C A120U A145U U176C
Second: C82G A111C A120U A145U U176A
The reverse-splicing fitness of the first is higher: 0.0197 for the first, 0.0115 for the second.

Going from C82G A111C A120U A145U U176G to C82G A111C A120U A145C C169A U176C, the reverse-splicing fitness falls from 0.00533 to 0.00237.

Compared with C82G A111C A120U A145C C169A U176G, C82G A111C A120U A145C C169A U176A is lower in reverse-splicing fitness: 0.00216 for the first, 0.0016 for the second.

First: C82G A111C A120U A145U C150U C169U U176G
Second: C82G A111C A120U A145U C150U C169U U176A
The reverse-splicing fitness of the first is lower: 0.00235 for the first, 0.0031 for the second.

Compared with C82G A111C A120U A145U C150U C169U U176C, C82G A111C A120U A145U C150G U176G is lower in reverse-splicing fitness: 0.00311 for the first, 0.00265 for the second.

Going from C82G A111C A120U A145U C150G U176C to C82G A111C A120U A145U C150G U176A, the reverse-splicing fitness falls from 0.0062 to 0.00411.

First: C82G A111C A120U A145U
Second: C82G A111C A120U A145C
The reverse-splicing fitness of the first is higher: 0.0481 for the first, 0.0432 for the second.

Compared with C82G A111C A120U A145G, C82G A111C A145C C169G is lower in reverse-splicing fitness: 0.0506 for the first, 0.00898 for the second.

First: C82G A111C A145C C169A
Second: C82G A111C A145C C169U
The reverse-splicing fitness of the first is lower: 0.00847 for the first, 0.0125 for the second.

Going from C82G A111C A145C C150G C169U U176C to C82G A111C A145C C150G C169U U176A, the reverse-splicing fitness falls from 0.0102 to 0.00717.

Going from C82G A111C A145C C150G C169U U176G to C82G A111C A120G U176C, the reverse-splicing fitness rises from 0.0071 to 0.0226.

Compared with C82G A111C A120G U176G, C82G A111C A120G U176A is higher in reverse-splicing fitness: 0.00753 for the first, 0.0162 for the second.

First: C82G A111C A120U C150U C169U U176C
Second: C82G A111C A120U C150U C169U U176A
The reverse-splicing fitness of the first is lower: 0.00485 for the first, 0.00688 for the second.

Compared with C82G A111C A120U C150U C169U U176G, C82G A111C A145C C150A C169G U176A is higher in reverse-splicing fitness: 0.0024 for the first, 0.0237 for the second.

Compared with C82G A111C A145C C150A C169G U176G, C82G A111C A145C C150A C169G U176C is higher in reverse-splicing fitness: 0.00878 for the first, 0.0224 for the second.

First: C82G A111C A120U C150G C169A U176A
Second: C82G A111C A120U C150G C169A U176C
The reverse-splicing fitness of the first is higher: 0.00878 for the first, 0.0071 for the second.

Going from C82G A111C A120U C150G C169A U176G to C82G A111C A120U A145C C150U C169U U176A, the reverse-splicing fitness rises from 0.00331 to 0.00337.

Going from C82G A111C A120U A145C C150U C169U U176G to C82G A111C A120U A145C C150U C169U U176C, the reverse-splicing fitness rises from 0.00249 to 0.00256.

First: C82G A111C A120U A145G C169A U176G
Second: C82G A111C A120U A145G C169A U176C
The reverse-splicing fitness of the first is lower: 0.00218 for the first, 0.00311 for the second.

Going from C82G A111C A120U A145G C169A U176A to C82G A111C A120U A145U C150G C169A U176G, the reverse-splicing fitness falls from 0.00424 to 0.00276.

Compared with C82G A111C A120U A145U C150G C169A U176C, C82G A111C A120U A145U C150G C169A U176A is higher in reverse-splicing fitness: 0.00308 for the first, 0.0036 for the second.

Compared with C82G A111C A120U A145U C150U C169U, C82G A111C A120U A145U C150U C169G is higher in reverse-splicing fitness: 0.00397 for the first, 0.00403 for the second.

Compared with C82G A111C A120U A145U C150U C169A, C82G A111C A145C C150A C169U U176A is higher in reverse-splicing fitness: 0.00298 for the first, 0.0135 for the second.

First: C82G A111C A145C C150A C169U U176C
Second: C82G A111C A145C C150A C169U U176G
The reverse-splicing fitness of the first is higher: 0.0122 for the first, 0.0092 for the second.

Going from C82G A111C A120U A145C C169U U176A to C82G A111C A120U A145C C169U U176C, the reverse-splicing fitness falls from 0.00293 to 0.00289.

Compared with C82G A111C A120U A145C C169U U176G, C82G A111C A120U C150A C169G U176G is higher in reverse-splicing fitness: 0.00214 for the first, 0.0024 for the second.

First: C82G A111C A120U C150A C169G U176A
Second: C82G A111C A120U C150A C169G U176C
The reverse-splicing fitness of the first is lower: 0.00466 for the first, 0.00487 for the second.

Compared with C82G A111C A120U A145C C150G C169G U176G, C82G A111C A120U A145C C150G C169G U176C is higher in reverse-splicing fitness: 0.00233 for the first, 0.00245 for the second.

Going from C82G A111C A120U A145C C150G C169G U176A to C82G A111C A120U A145C C150G, the reverse-splicing fitness rises from 0.00317 to 0.008.

Compared with C82G A111C A120U A145C C150A, C82G A111C A120U A145C C150U is higher in reverse-splicing fitness: 0.00458 for the first, 0.0115 for the second.

First: C82G A111C A145C C150G C169G U176C
Second: C82G A111C A145C C150G C169G U176G
The reverse-splicing fitness of the first is higher: 0.0101 for the first, 0.00664 for the second.

Compared with C82G A111C A145C C150G C169G U176A, C82G A111C A120U A145C C150U C169G U176A is lower in reverse-splicing fitness: 0.00893 for the first, 0.00257 for the second.

Compared with C82G A111C A120U A145C C150U C169G U176G, C82G A111C A120U A145C C150U C169G U176C is higher in reverse-splicing fitness: 0.00262 for the first, 0.00305 for the second.

First: C82G A111C A120U A145C C150A C169A U176A
Second: C82G A111C A120U A145C C150A C169A U176C
The reverse-splicing fitness of the first is lower: 0.00209 for the first, 0.00225 for the second.

Source: the RNAGym collection of RNA variant scans (doi:10.1093/molbev/msab373)
